Laboratory results as given in the Immune Epitope Database (IEDB).

Columns and labels:
[1] = molecular target: HLA-A*02:01; assay: IEDB peptide-MHC binding, purified MHC/competitive/fluorescence; filed as Kd, often an IC50 or EC50 that approximates it; ≥ and ≤ were set here for values at or beyond the usual limits of such assays
[2] = molecular target: HLA-A*03:01; assay: as above; details: source organism: Pan troglodytes
[3] = molecular target: HLA-A*26:01; assay: as above
[4] = molecular target: HLA-A*68:02; assay: as above; details: source organism: Pan troglodytes
[5] = molecular target: HLA-A*69:01; assay: as above
[6] = molecular target: HLA-B*15:01; assay: as above
[7] = molecular target: HLA-B*15:17; assay: as above
[8] = molecular target: HLA-B*18:01; assay: as above
[9] = molecular target: HLA-B*27:03; assay: as above
[10] = molecular target: HLA-B*39:01; assay: as above
[11] = molecular target: HLA-B*46:01; assay: as above; details: source organism: Pan troglodytes
[12] = molecular target: HLA-B*51:01; assay: as above
[13] = molecular target: HLA-B*57:01; assay: as above
[14] = molecular target: HLA-A*01:01; assay: IEDB peptide-MHC binding, purified MHC/direct/fluorescence; filed as Kd, often an IC50 or EC50 that approximates it; ≥ and ≤ were set here for values at or beyond the usual limits of such assays
[15] = molecular target: HLA-A*02:01; assay: as above
[16] = molecular target: HLA-A*11:01; assay: as above
[17] = molecular target: HLA-A*26:01; assay: as above
[18] = molecular target: HLA-A*31:01; assay: as above
[19] = molecular target: HLA-A*68:02; assay: as above
[20] = molecular target: HLA-A*69:01; assay: as above
[21] = molecular target: HLA-B*08:01; assay: as above
[22] = molecular target: HLA-B*08:03; assay: as above; details: source organism: Francisella tularensis subsp. tularensis FSC033
[23] = molecular target: HLA-B*18:01; assay: as above
[24] = molecular target: HLA-B*57:01; assay: as above
[25] = molecular target: HLA-B*58:01; assay: as above
[26] = molecular target: HLA-A*02:03; assay: IEDB peptide-MHC binding, purified MHC/competitive/fluorescence; filed as Kd, often an IC50 or EC50 that approximates it; ≥ and ≤ were set here for values at or beyond the usual limits of such assays; details: source organism: Francisella tularensis subsp. tularensis FSC198
[27] = molecular target: HLA-A*26:02; assay: as above; details: source organism: Francisella tularensis subsp. tularensis FSC198
[28] = molecular target: HLA-A*30:01; assay: as above; details: source organism: Francisella tularensis subsp. tularensis FSC198
[29] = molecular target: HLA-B*07:02; assay: as above; details: source organism: Francisella tularensis subsp. tularensis FSC198
[30] = molecular target: HLA-A*03:01; assay: IEDB peptide-MHC binding, purified MHC/direct/fluorescence; filed as Kd, often an IC50 or EC50 that approximates it; ≥ and ≤ were set here for values at or beyond the usual limits of such assays
[31] = molecular target: HLA-A*24:03; assay: as above; details: source organism: Salmonella enterica subsp. enterica serovar Typhi
[32] = molecular target: HLA-B*07:02; assay: as above
[33] = molecular target: HLA-B*15:01; assay: as above; details: source organism: Salmonella enterica subsp. enterica serovar Typhi
[34] = molecular target: HLA-B*27:05; assay: as above
[35] = molecular target: HLA-B*35:01; assay: as above; details: source organism: Salmonella enterica subsp. enterica serovar Typhi
[36] = molecular target: HLA-B*40:01; assay: as above
[37] = molecular target: HLA-B*44:02; assay: as above; details: source organism: Salmonella enterica subsp. enterica serovar Typhi
[38] = molecular target: HLA-B*15:09; assay: as above; details: source organism: Ravn virus - Ravn, Kenya, 1987
[39] = molecular target: HLA-B*15:17; assay: as above; details: source organism: Marburg virus - Musoke, Kenya, 1980
[40] = molecular target: HLA-B*48:01; assay: as above; details: source organism: Marburg virus - Musoke, Kenya, 1980
[41] = molecular target: HLA-A*02:06; assay: IEDB peptide-MHC binding, purified MHC/competitive/fluorescence; filed as Kd, often an IC50 or EC50 that approximates it; ≥ and ≤ were set here for values at or beyond the usual limits of such assays; details: source organism: Orthomarburgvirus marburgense
[42] = molecular target: HLA-A*02:12; assay: IEDB peptide-MHC binding, purified MHC/direct/fluorescence; filed as Kd, often an IC50 or EC50 that approximates it; ≥ and ≤ were set here for values at or beyond the usual limits of such assays; details: source organism: Limestone Canyon virus
[43] = molecular target: HLA-A*02:16; assay: as above; details: source organism: Limestone Canyon virus
[44] = molecular target: HLA-A*02:19; assay: as above; details: source organism: Limestone Canyon virus
[45] = molecular target: HLA-A*29:02; assay: as above; details: source organism: Limestone Canyon virus
[46] = molecular target: HLA-C*15:02; assay: as above; details: source organism: Four Corners hantavirus
[47] = source organism: Pan troglodytes
[48] = source organism: Francisella tularensis subsp. holarctica LVS
[49] = source organism: Salmonella enterica subsp. enterica serovar Typhi
[50] = source organism: Marburg virus - Musoke, Kenya, 1980
[51] = source organism: Ravn virus - Ravn, Kenya, 1987
[52] = source organism: Four Corners hantavirus

**Q.** What does the source list for FLFDRLTNG?
**A.** Kd [1, 47]: 0.0015 µM; Kd [2]: ≥ 20 µM; Kd [3, 47]: ≥ 20 µM; Kd [4]: ≥ 20 µM; Kd [5, 47]: ≥ 20 µM; Kd [6, 47]: ≥ 20 µM; Kd [7, 47]: ≥ 20 µM; Kd [8, 47]: ≥ 20 µM; Kd [9, 47]: ≥ 20 µM; Kd [10, 47]: ≥ 20 µM; Kd [11]: ≥ 20 µM; Kd [12, 47]: ≥ 20 µM; Kd [13, 47]: ≥ 20 µM

**Q.** Which results are given for EFKRRLKDL?
**A.** Kd [14, 48]: ≥ 20 µM; Kd [15, 48]: ≥ 20 µM; Kd [16, 48]: ≥ 20 µM; Kd ([17]; source organism: Francisella tularensis subsp. tularensis FSC033): ≥ 20 µM; Kd [18, 48]: ≥ 20 µM; Kd [19, 48]: ≥ 20 µM; Kd [20, 48]: ≥ 20 µM; Kd [21, 48]: 0.0523 µM; Kd [22]: ≥ 20 µM; Kd [23, 48]: ≥ 20 µM; Kd [24, 48]: ≥ 20 µM; Kd [25, 48]: ≥ 20 µM; Kd [26]: ≥ 20 µM; Kd [27]: ≥ 20 µM; Kd [28]: ≥ 20 µM; Kd [29]: ≥ 20 µM; Kd ([6]; source organism: Francisella tularensis subsp. tularensis FSC198): ≥ 20 µM

**Q.** What does the source list for LPLIVDTAA?
**A.** Kd [14, 49]: ≥ 20 µM; Kd [15, 49]: ≥ 20 µM; Kd [30, 49]: ≥ 20 µM; Kd [16, 49]: ≥ 20 µM; Kd [31]: ≥ 20 µM; Kd [17, 49]: ≥ 20 µM; Kd [18, 49]: ≥ 20 µM; Kd [20, 49]: ≥ 20 µM; Kd [32, 49]: 5.75 µM; Kd [21, 49]: 11.2 µM; Kd [33]: ≥ 20 µM; Kd [34, 49]: ≥ 20 µM; Kd [35]: 0.00636 µM; Kd [36, 49]: ≥ 20 µM; Kd [37]: ≥ 20 µM; Kd [25, 49]: ≥ 20 µM

**Q.** What does the source list for GEGSGARLL?
**A.** Kd [14, 50]: ≥ 20 µM; Kd [16, 50]: ≥ 20 µM; Kd [17, 51]: ≥ 20 µM; Kd [18, 50]: ≥ 20 µM; Kd [19, 50]: ≥ 20 µM; Kd [20, 50]: ≥ 20 µM; Kd [32, 50]: ≥ 20 µM; Kd [21, 51]: ≥ 20 µM; Kd [38]: ≥ 20 µM; Kd [39]: ≥ 20 µM; Kd [23, 50]: ≥ 20 µM; Kd [34, 50]: ≥ 20 µM; Kd [36, 50]: 0.279 µM; Kd [40]: ≥ 20 µM; Kd [24, 50]: ≥ 20 µM; Kd [25, 50]: ≥ 20 µM; Kd ([1]; source organism: Orthomarburgvirus marburgense): 4.69 µM; Kd [41]: 1.14 µM

**Q.** Which Kd [42] does the source give for KARNIISPV here?
**A.** ≥ 20 µM

**Q.** What about the Kd [43] of the same sequence?
**A.** ≥ 20 µM

**Q.** And the Kd [44]?
**A.** ≥ 20 µM

**Q.** What about the Kd ([30]; source organism: Limestone Canyon virus) of the same sequence?
**A.** ≥ 20 µM

**Q.** What about the Kd [45] of the same sequence?
**A.** ≥ 20 µM

**Q.** What about the Kd ([32]; source organism: Hantavirus Monongahela-3) of the same sequence?
**A.** 0.107 µM

**Q.** What about the Kd [46] of the same sequence?
**A.** 0.088 µM

**Q.** What about the Kd [3, 52] of the same sequence?
**A.** ≥ 20 µM

**Q.** And the Kd [5, 52]?
**A.** ≥ 20 µM

**Q.** What about the Kd [6, 52] of the same sequence?
**A.** ≥ 20 µM

**Q.** What about the Kd [7, 52] of the same sequence?
**A.** ≥ 20 µM

**Q.** And the Kd [8, 52]?
**A.** ≥ 20 µM

**Q.** And the Kd [9, 52]?
**A.** ≥ 20 µM

**Q.** And the Kd [10, 52]?
**A.** ≥ 20 µM

**Q.** What about the Kd [12, 52] of the same sequence?
**A.** ≥ 20 µM

**Q.** What about the Kd [13, 52] of the same sequence?
**A.** ≥ 20 µM
